According to patent publication US20260146107A1 (ALLIGATOR BIOSCIENCE, published 2026):
Positions count from the first letter of the chain named.

T1: human CEACAM5, recombinant (R&D Systems #4128-CM-050) (human, UniProt P06731 35-685)
T1 construct: Bought; coated in ELISA and used as monomeric analyte in Octet; also called hCEACAM-5; Human CEACAM5-His; not shown: His tag
T1 sequence (looked up): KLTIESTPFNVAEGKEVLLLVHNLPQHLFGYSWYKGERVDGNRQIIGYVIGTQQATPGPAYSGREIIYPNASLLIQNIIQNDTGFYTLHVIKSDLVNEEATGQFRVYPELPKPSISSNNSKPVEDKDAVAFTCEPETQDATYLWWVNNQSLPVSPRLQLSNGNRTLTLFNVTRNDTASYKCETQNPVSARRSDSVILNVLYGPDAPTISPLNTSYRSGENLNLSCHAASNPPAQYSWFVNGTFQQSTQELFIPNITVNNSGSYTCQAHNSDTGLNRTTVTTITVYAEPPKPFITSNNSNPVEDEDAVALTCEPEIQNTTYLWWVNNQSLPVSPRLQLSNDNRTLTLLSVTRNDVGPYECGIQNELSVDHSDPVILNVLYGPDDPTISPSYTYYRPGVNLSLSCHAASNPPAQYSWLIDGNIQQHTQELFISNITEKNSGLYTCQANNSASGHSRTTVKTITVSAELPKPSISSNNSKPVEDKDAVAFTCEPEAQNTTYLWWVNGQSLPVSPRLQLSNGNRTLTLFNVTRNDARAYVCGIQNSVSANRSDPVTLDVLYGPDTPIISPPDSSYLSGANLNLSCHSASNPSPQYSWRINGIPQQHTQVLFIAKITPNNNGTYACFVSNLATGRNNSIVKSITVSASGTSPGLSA

T2: human CEACAM1, recombinant (R&D Systems #2244-CM-050) (human, UniProt P13688 35-428)
T2 construct: also called hCEACAM-1
T2 sequence (looked up): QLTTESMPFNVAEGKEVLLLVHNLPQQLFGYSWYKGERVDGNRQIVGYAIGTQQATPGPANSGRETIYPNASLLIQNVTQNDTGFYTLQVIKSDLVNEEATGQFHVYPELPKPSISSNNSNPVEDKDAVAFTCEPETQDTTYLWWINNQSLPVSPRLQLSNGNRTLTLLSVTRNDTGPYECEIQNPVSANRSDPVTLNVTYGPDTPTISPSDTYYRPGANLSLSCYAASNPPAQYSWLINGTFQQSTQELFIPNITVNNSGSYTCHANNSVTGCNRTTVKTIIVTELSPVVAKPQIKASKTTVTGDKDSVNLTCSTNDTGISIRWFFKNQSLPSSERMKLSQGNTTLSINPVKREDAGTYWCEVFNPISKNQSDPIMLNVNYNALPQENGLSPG

B1: AC_05081 (antibody, human IgG1, kappa, V domains shown)
VH: EVQLLESGGGLVQPGGSLRLSCAASGFTFSSSYMGWVRQAPGKGLEWVSSIGSGSYSTSYADSVKGRFTISRDNSKNTLYLQMNSLRAEDTAVYYCARYPSVPFQPHLDYWGQGTLVTVSS
VL: DIQMTQSPSSLSASVGDRVTITCRASQSISSYLNWYQQKPGKAPKLLIYAASSLQSGVPSRFSGSGSGTDFTLTISSLQPEDFATYYCQQAGNPHTFGQGTKLEIKR
B2: AC_05059 (antibody, human IgG1, kappa, V domains shown)
VH: B1 VH with Q105P
VL: B1 VL
B3: AC_05080 (antibody, V domains shown)
VH: B1 VH with Q105P, H107L
VL: DIQMTQSPSSLSASVGDRVTITCRASQSISSYLNWYQQKPGKAPKLLIYAASSLQSGVPSRFSGSGSGTDFTLTISSLQPEDFATYYCQQAGNPHTFGQGTKLEIK
B4: AC_05088 (antibody, human IgG1, kappa, V domains shown)
VH: B1 VH with P103L, Q105P
VL: B1 VL
B5: AC_05090 (antibody, human IgG1, kappa, V domains shown)
VH: B1 VH with Q105P, P106L
VL: B1 VL
B6: AC_05093 (antibody, human IgG1, kappa, V domains shown)
VH: B1 VH with Q105P, L108V
VL: B1 VL
B7: AC_05097 (antibody, human IgG1, kappa, V domains shown)
VH: B1 VH with Q105S
VL: B1 VL
B8: AC_05089 (antibody, human IgG1, kappa, V domains shown)
VH: B1 VH with Q105P, P106H
VL: B1 VL
B9: AC_05094 (antibody, human IgG1, kappa, V domains shown)
VH: B1 VH with Q105P, L108W
VL: B1 VL
B10: AC_05091 (antibody, human IgG1, kappa, V domains shown)
VH: B1 VH with Q105P, L108F
VL: B1 VL
B11: AC_05087 (antibody, V domains shown)
VH: B1 VH with S101P, Q105P
VL: B3 VL
B12: AC_05079 (antibody, human IgG1, kappa, V domains shown)
VH: B1 VH with Q105P, H107P
VL: B1 VL
B13: AC_05092 (antibody, V domains shown)
VH: B1 VH with Q105P
VL: B3 VL with Y32D
B14: AC_05086 (antibody, V domains shown)
VH: B1 VH with R98H, Q105P
VL: B3 VL
B15: AC_05095 (antibody, V domains shown)
VH: B1 VH with Q105P, P106S
VL: B3 VL
B16: AC_05099 (antibody, V domains shown)
VH: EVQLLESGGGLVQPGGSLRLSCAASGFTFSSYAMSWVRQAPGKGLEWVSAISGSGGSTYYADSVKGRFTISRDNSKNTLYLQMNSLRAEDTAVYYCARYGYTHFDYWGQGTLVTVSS
VL: B3 VL
B17: Multi42 (bispecific antibody, human IgG1, kappa, L234A L235A)
chain 1: not shown
chain 2: EIVLTQSPGTLSLSPGERATLSCRASQSVSSSYLAWYQEKPGQAPRLLIYGASSRATGIPDRFSGSGSGTDFTLTISRLEPEDFAVYYCQQYWYPLTFGQGTKLEIKRTVAAPSVFIFPPSDEQLKSGTASVVCYLNNFYPREAKVQWKVDNALQSGNSQESVTEQDSKDSTYSLWSTLTLSKADYEKHKVYACEVTHQGLSSPVTKSFNRGEC
chain 3: EVQLLESGGGLVQPGGSLRLSCAASGFTFSTYGMHWVREAPGKGLEWLSYISGGSSYIFYADSVKGRFTISRDNSKNTLYLQMNSLRAEDTAVYYCARILRGGSGMDLWGQGTLVTVSSASTKGPSVFPLAPSSKSTSGGTAALGCLVKDYFPEPVTVSWNSGALTSGVHTFPAVLQSSGLYSLTSVVEVPSSSLGTQTYICNVNHKPSNTKVDKKVEPKSC

Molecular target: T1, human CEACAM5, recombinant (R&D Systems …)
Assay: Octet BLI, IgG1 captured on AHC tips, CEACAM5-His in solution, 1:1 fit
Procedure: Kinetic measurements were performed in the Octet RED96 platform using several different setups. Monoclonal antibodies (listed in Table 9), serially diluted ½ starting at 100 nM, were captured to anti human IgG Fc Capture (AHC) Biosensor tips (Sartorius #18-5060). Human CEACAM5-His (R&D Systems #4128-CM-050) diluted in 1× kinetic buffer (Sartorius) at 100 nM was then added. Binding kinetics was studied in 1× kinetic buffer where association was allowed for 300 sec followed by dissociation for 600 sec. Sensor tips were regenerated with 10 mM Glycine pH 1.7. Data generated were referenced by subtracting blank or parallel buffer blank, the baseline was aligned to the y-axis, inter-step correction by alignment against dissociation was performed and the data was smoothed by Savitzky-Golay filter in the data analysis software (v9.0.0.14). The processed data was fitted using a 1:1 Langmuir binding model with R² or X² as a measurement of fitting accuracy.

Binder | Kd [nM] | koff [s⁻¹] | kon [M⁻¹ s⁻¹]
B1 | 100 | 0.008 | 60000
B2 | < 0.001 | < 1e-07 | 300000
B3 | 0.008 | 2e-06 | 200000
B4 | 20 | 0.03 | 1e+06
B5 | 20 | 0.004 | 300000
B6 | 0.4 | 0.0001 | 300000
B7 | 0.07 | 2e-05 | 200000
B8 | 40 | 0.01 | 300000
B9 | 50 | 0.0008 | 20000
B10 | 2 | 0.0003 | 200000

Molecular target: T1, human CEACAM5, recombinant (R&D Systems …)
Assay: ELISA, antigen coated at 0.5 µg/mL, IgG1 antibody at 10 µg/ml, anti-human kappa-HRP, luminescence
Procedure: (§1) 96-well plates were coated with 0.5 μg/mL antigen, hCEACAM-5 (4128-CM-050, R&D Systems), hCEACAM-1 (2244-CM-050, R&D Systems), hCEACAM-6(3934-CM-050, R&D Systems) or CEACAM-8 (9639-CM-050, R&D Systems) in PBS over night at 4° C. After washing with PBS/0.05% Tween 20 (PBST), the plates were blocked with PBST, 2% BSA for at least 30 minutes at room temperature before a second round of washing. […] After washing, plates were incubated with 50 μl detection antibody (0.5 μg/ml HRP conjugated goat anti human-kappa light chain, #STAR127P, AbD Serotec). Finally, a final round of washing was performed and bound complexes detected using SuperSignal Pico Luminescent as substrate and luminescence signals were measured using Fluostar Optima.

Binder | binding result
B11 | binds
B12 | binds
B13 | no binding (tested: 10 µg/ml)
B14 | binds
B15 | binds

Molecular target: T2, human CEACAM1, recombinant (R&D Systems …)
Assay: as above
Procedure: as §1

Binder | binding result
B16 | no binding (tested: 10 µg/ml)
B1 | no binding (tested: 10 µg/ml)
B3 | binds
B11 | binds
B4 | no binding (tested: 10 µg/ml)
B12 | no binding (tested: 10 µg/ml)
B13 | no binding (tested: 10 µg/ml)
B5 | no binding (tested: 10 µg/ml)
B14 | binds
B15 | binds
B6 | no binding (tested: 10 µg/ml)
B7 | no binding (tested: 10 µg/ml)
B8 | no binding (tested: 10 µg/ml)
B9 | no binding (tested: 10 µg/ml)
B10 | no binding (tested: 10 µg/ml)

Molecular target: human CD40 expressed on cells (CD40 reporter cells, HEK Blue CD40L cells, primary B cells, tumour APCs) (human, UniProt P25942 21-277)
Sequence (P25942 21-277): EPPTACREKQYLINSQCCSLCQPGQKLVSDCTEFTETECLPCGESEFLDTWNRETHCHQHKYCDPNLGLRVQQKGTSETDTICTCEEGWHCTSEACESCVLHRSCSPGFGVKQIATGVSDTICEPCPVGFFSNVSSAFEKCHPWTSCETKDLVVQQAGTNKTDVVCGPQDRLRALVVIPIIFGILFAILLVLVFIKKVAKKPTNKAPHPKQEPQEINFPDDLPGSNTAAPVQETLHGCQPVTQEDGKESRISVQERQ
Assay: cell-based or functional assay

Binder | EC50 of SEAP release, HEK Blue CD40L reporter cells, bsAb crosslinked to CHO-CEACAM5 cells, 0 Raji sink cells/well [nM] | EC50 of SEAP release, same assay, 10 000 Raji sink cells/well [nM] | EC50 of SEAP release, same assay, 30 000 Raji sink cells/well [nM] | EC50 of SEAP release, same assay, 90 000 Raji sink cells/well [nM]
B17 | 0.04 | 0.06 | 0.11 | 0.36
